Like-named read-outs stand apart in the source and are kept apart here.
How the values were obtained:
actin filaments [1] = target: actin filaments (UniProt P68135); test: co-sedimentation
actin filaments [2] = target: actin filaments (UniProt P68135); test: co-sedimentation; remark: listed apart in the source
[3] = target: Actin (Oryctolagus cuniculus) (UniProt P68135); settings: cited from earlier work
[4] = target: Actin (Oryctolagus cuniculus) (UniProt P68135); settings: cited from earlier work; remark: listed apart in the source

Work on full-length dystrophin, P11531 1-3678 yielded a Kd (actin filaments [1]) of 0.11 µM and a Kd (actin filaments [2]) of 0.152 µM.
In the case of “Dystrophin DysN-R17 (from UniProt P11531)”, the Kd [3] is listed as 0.76 µM.
For Dystrophin (from UniProt P11531), the Kd [4] is given as 0.3 µM.
DP260 isoform of dystrophin showed a Kd (actin filaments [1]) of 6.85 µM.

From PMC3273627
